Data on four molecules can be found in article doi:10.64898/2025.12.26.696629.

Like-named read-outs stand apart in the source and are kept apart here.

Data set [1] addresses Mtb SufR_(6-229)-His6 (Mycobacterium tuberculosis H37Rv). Put plainly: cryo-EM structure.
For data set [2], the target named is T1, SufR-R51A (Mycobacterium tuberculosis H37Rv, UniProt O53151 30-253, R75A).
T1 sequence: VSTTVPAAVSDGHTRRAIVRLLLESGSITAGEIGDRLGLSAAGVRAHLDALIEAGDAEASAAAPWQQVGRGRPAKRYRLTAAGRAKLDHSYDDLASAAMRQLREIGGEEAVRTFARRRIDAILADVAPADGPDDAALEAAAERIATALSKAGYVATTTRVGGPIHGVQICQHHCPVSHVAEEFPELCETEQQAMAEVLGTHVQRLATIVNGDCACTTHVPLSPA
Put plainly: EMSA. Background: In EMSA bound probe runs differently from free probe, usually more slowly.

For data set [3], the target named is T2, SufR-M2 (AT-hook mutant) (Mycobacterium tuberculosis H37Rv, UniProt O53151 30-253, R99A;R101A).
T2 sequence: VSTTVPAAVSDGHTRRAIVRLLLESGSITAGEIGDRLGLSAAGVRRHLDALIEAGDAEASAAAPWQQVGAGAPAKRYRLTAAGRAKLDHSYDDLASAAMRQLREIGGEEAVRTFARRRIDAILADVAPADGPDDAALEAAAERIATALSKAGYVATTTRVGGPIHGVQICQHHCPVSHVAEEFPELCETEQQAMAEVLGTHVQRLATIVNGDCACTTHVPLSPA
Nature of the data set: EMSA.

For data set [4], the target named is T3, SufR-M1 (RRH motif mutant) (Mycobacterium tuberculosis H37Rv, UniProt O53151 30-253, R74A;R75A;H76A).
T3 sequence: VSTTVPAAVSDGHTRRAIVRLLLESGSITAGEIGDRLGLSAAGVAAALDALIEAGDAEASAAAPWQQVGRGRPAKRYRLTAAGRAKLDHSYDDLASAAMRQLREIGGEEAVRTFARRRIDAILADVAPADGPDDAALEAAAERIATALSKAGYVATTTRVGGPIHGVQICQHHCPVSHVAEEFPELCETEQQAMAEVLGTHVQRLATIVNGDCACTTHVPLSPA
Nature of the data set: EMSA.

The target in data set [5] is T4, SufR-R75M (Mycobacterium tuberculosis H37Rv, UniProt O53151 30-253, R99M).
T4 sequence: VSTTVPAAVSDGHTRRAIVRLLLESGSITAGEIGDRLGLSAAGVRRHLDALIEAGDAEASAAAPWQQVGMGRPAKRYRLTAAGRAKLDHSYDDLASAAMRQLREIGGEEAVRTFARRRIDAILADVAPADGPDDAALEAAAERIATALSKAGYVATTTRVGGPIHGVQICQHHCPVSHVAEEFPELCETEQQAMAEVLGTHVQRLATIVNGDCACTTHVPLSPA
Put plainly: EMSA.

Data set [6] has as its target T5, SufR6-229-His6 (holo, [4Fe-4S]) (Mycobacterium tuberculosis H37Rv, UniProt O53151 30-253).
T5 sequence: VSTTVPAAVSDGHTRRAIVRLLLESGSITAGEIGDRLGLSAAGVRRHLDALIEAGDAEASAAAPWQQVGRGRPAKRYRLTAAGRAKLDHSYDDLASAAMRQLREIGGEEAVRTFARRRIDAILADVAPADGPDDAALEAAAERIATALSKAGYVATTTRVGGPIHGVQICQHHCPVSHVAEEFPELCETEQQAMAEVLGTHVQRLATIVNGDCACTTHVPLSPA
Put plainly: EMSA.

Data set [7] deals with T5, SufR6-229-His6 (holo, [4Fe-4S]). Put plainly: EMSA. The source holds these as a separate data set.

Take “Mtb SufR_(6-229)-His6 (domain or fragment)”: the stoichiometry N in data set [1] is 2.

B1: PsufR 50-bp (dsDNA)
DNA 1: CCGATCAACGGAATTTTGTCACACTGATGTTGTGAAAATCCCGGCGGTCT
DNA 2: AGACCGCCGGGATTTTCACAACATCAGTGTGACAAAATTCCGTTGATCGG
On to B1, for which the binding result is “no binding” in data set [2], “no binding” in data set [3], “no binding” in data set [4] and “binds” in data set [5].

B2: PsufR-DM (dsDNA)
DNA 1: CCGATCAACGGAACTGTGTCACACTGATGTTGTGACAGTCCCGGCGGTCT
DNA 2: AGACCGCCGGGACTGTCACAACATCAGTGTGACACAGTTCCGTTGATCGG
As to B2, the binding result in data set [6] was “no binding”.

B3: PsufR-PM (dsDNA)
DNA 1: CCGATCAACGGAATTTTGTCGAAGTGATGTCACTAAAATCCCGGCGGTCT
DNA 2: AGACCGCCGGGATTTTAGTGACATCACTTCGACAAAATTCCGTTGATCGG
On to B3, for which, in data set [7], the binding result is “binds”.

The term stoichiometry N denotes a count of units in the complex or per binding partner.
